Five molecules from patent publication US12679878B2, “CRF2 receptor agonists and their use in therapy” (SANOFI, priority 2020, dated 2026) can be followed below.

Starred links: 1 amine or outer side, 2 acyl side, 3 side chain; linkers in the order of their positions; H or OH if unused. Non-standard residues stand in square brackets, D forms with d. Residues, ends and D or L forms follow the SMILES beside them. Groups on a side chain read outwards from the residue. No end group written: not given here. *: point of attachment. C18 diacid = O=C(O)CCCCCCCCCCCCCCCCC(=O)*; γGlu = O=C(O)[C@H](CCC(=O)[*:2])N[*:1]; Palmitoyl = CCCCCCCCCCCCCCCC(=O)*; AEEA = NCCOCCOCC(=O)O; Aib = CC(C)(N)C(=O)O

One test has as its target T1, human CRF2α receptor (Homo sapiens, UniProt Q13324).
T1 construct: expressed in transfected cells; host or cells: TeloHEAC
T1 sequence (Q13324 1-411): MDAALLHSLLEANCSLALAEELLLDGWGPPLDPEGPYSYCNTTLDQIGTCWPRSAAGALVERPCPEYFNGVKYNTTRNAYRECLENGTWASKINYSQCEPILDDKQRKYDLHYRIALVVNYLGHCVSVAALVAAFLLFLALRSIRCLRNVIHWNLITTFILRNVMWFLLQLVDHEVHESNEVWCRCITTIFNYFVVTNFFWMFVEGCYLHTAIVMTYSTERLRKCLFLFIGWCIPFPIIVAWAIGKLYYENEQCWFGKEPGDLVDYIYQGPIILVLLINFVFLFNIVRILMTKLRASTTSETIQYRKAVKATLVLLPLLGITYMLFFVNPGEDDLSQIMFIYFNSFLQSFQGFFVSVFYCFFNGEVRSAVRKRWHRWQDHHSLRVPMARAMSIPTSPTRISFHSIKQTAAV
Briefly: cAMP agonism at human CRF2 α receptor in TeloHEAC cells (Example 7). Type of test: cell-based. The note with it: cAMP HTRF, TeloHEAC cells stably expressing human CRF2 α, 0% HSA; read-out: EC50 [nM], 0% HSA. As to the method: Agonism of compounds for human corticotropin-releasing factor 2α (CRF2 α receptor) was determined by functional assays measuring CAMP response of a TeloHEAC cell line stably expressing human CRF2 α receptor.
Cells were grown in a T175 culture flask placed at 37° C. to near confluence in medium (DMEM/10% FBS) and collected in 2 ml vials in cell culture medium containing 10% DMSO in a concentration of 10-50 million cells/ml. Each vial contained 1.8 ml cells. The vials were slowly frozen to −80° C. in isopropanol and then transferred in liquid nitrogen for storage. Prior to use, frozen cells were thawed quickly at 37° C. and washed (5 min at 900 rpm) with 20 ml cell buffer (1×HBSS; 20 mM HEPES; 0% or 0.1% HSA). Cells were resuspended in assay buffer (cell buffer plus 2 mM IBMX) and adjusted to a cell density of 1 million cells/ml. For measurement, 5 μl cells (final […]) and 5 μL of test compound were added to a 384-well plate, followed by incubation for 30 minutes at room temperature.
The CAMP content of cells was determined using a kit from Cisbio Corp. (cat. no. 62AM4PEC) based on HTRF (Homogenous Time Resolved Fluorescence). After addition of HTRF reagents diluted in lysis buffer (kit components), the plates were incubated for 1 h, followed by measurement of the fluorescence ratio at 665/620 nm. The percent activity value (E %) was calculated by setting 1000 nM of urocortin 2 (UCN2) as 100%. The in vitro potency of the compounds was quantified by determining the concentrations that caused 50% activation of maximal response (EC50).
(Time-resolved FRET reads energy transfer from a long-lived donor to a nearby acceptor.)

Test [1] deals with human corticotropin-releasing factor 2α (CRF2 α receptor) (human), Q13324. Description: cell-based or functional assay.

For the molecule `CCCCCCCCCCCCCCCC(=O)N[C@@H](CCC(=O)NCCCC[C@H](NC(=O)[C@H](CC(C)C)NC(=O)CNC(=O)[C@@H](NC(=O)[C@@H]1CCCN1C(=O)[C@@H](NC(=O)[C@H](CC(=O)O)NC(=O)[C@H](CC(C)C)NC(=O)[C@H](CO)NC(=O)[C@H](CC(C)C)NC(=O)[C@@H](NC(=O)[C@@H](N)[C@@H](C)CC)C(C)C)C(C)C)[C@@H](C)CC)C(=O)N[C@@H](CCC(N)=O)C(=O)N[C@H](C(=O)N[C@@H](CC(C)C)C(=O)N[C@@H](CC(C)C)C(=O)N[C@@H](CCC(=O)O)C(=O)N[C@@H](CCC(N)=O)C(=O)N[C@@H](CCC(=O)O)C(=O)N[C@@H](CCCCN)C(=O)N[C@@H](CCC(N)=O)C(=O)N[C@@H](CCC(=O)O)C(=O)N[C@@H](CCCCN)C(=O)N[C@@H](CCC(=O)O)C(=O)N[C@@H](CCCCN)C(=O)N[C@@H](CCC(N)=O)C(=O)N[C@@H](CCC(N)=O)C(=O)N[C@@H](C)C(=O)N[C@@H](CCC(=O)O)C(=O)N[C@H](C(=O)N[C@@H](CC(N)=O)C(=O)N[C@@H](C)C(=O)N[C@@H](CCC(N)=O)C(=O)N[C@H](C(=O)N[C@@H](CC(C)C)C(=O)N[C@@H](C)C(=O)N[C@@H](CCC(N)=O)C(=O)N[C@H](C(N)=O)C(C)C)[C@@H](C)CC)[C@@H](C)O)[C@@H](C)CC)C(=O)O` [compound 1] (H-IVLSLDVPIGLK([γGlu-Palmitoyl])QILLEQEKQEKEKQQAETNAQILAQV-NH2; N-terminus assumed), the EC50 – broadly, the concentration that produces a half-maximal response – on human CRF2α receptor is 0.01 nM.

For `CCCCCCCCCCCCCCCC(=O)N[C@@H](CCC(=O)NCCCC[C@H](NC(=O)[C@H](CC(C)C)NC(=O)[C@H](CCCCN)NC(=O)[C@@H](NC(=O)[C@@H]1CCCN1C(=O)[C@H](NC(=O)[C@H](CC(=O)O)NC(=O)[C@H](CC(C)C)NC(=O)[C@H](CO)NC(=O)[C@H](CC(C)C)NC(=O)[C@@H](NC(=O)[C@@H](N)[C@@H](C)CC)C(C)C)C(C)C)[C@@H](C)O)C(=O)N[C@@H](CCC(N)=O)C(=O)N[C@@H](CCCCN)C(=O)N[C@@H](CC(C)C)C(=O)N[C@@H](CC(C)C)C(=O)N[C@@H](CCCCN)C(=O)N[C@@H](CCC(N)=O)C(=O)N[C@@H](CCC(=O)O)C(=O)N[C@@H](CCCNC(=N)N)C(=O)N[C@@H](CCC(N)=O)C(=O)N[C@@H](CCCNC(=N)N)C(=O)N[C@@H](CCCCN)C(=O)N[C@@H](CCC(=O)O)C(=O)N[C@@H](CCCNC(=N)N)C(=O)N[C@@H](CCC(=O)O)C(=O)N[C@@H](CCC(N)=O)C(=O)N[C@@H](C)C(=O)N[C@@H](CCC(=O)O)C(=O)N[C@@H](CCCCN)C(=O)N[C@@H](CC(N)=O)C(=O)NC(C)(C)C(=O)N[C@@H](CCCNC(=N)N)C(=O)N[C@H](C(=O)N[C@@H](CC(C)C)C(=O)N[C@@H](CCC(=O)O)C(=O)N[C@@H](CCCNC(=N)N)C(=O)N[C@H](C(N)=O)C(C)C)[C@@H](C)CC)C(=O)O` [compound 31] (H-IVLSLD[dV]PTKLK([γGlu-Palmitoyl])QKLLKQERQRKEREQAEKN[Aib]RILERV-NH2; N-terminus assumed), on human CRF2α receptor, the EC50 amounted to 0.01 nM. Take `CCCCCCCCCCCCCCCC(=O)N[C@@H](CCC(=O)NCCCC[C@H](NC(=O)[C@H](CC(C)C)NC(=O)[C@H](CCCCN)NC(=O)[C@@H](NC(=O)[C@@H]1CCCN1C(=O)[C@H](NC(=O)[C@H](CC(=O)O)NC(=O)[C@H](CC(C)C)NC(=O)[C@H](CO)NC(=O)[C@H](CC(C)C)NC(=O)[C@@H](NC(=O)[C@@H](N)[C@@H](C)CC)C(C)C)C(C)C)[C@@H](C)O)C(=O)N[C@@H](CCC(N)=O)C(=O)N[C@@H](CCCCN)C(=O)N[C@@H](CC(C)C)C(=O)N[C@@H](CC(C)C)C(=O)N[C@@H](CCCCN)C(=O)N[C@@H](CCC(N)=O)C(=O)N[C@@H](CCC(=O)O)C(=O)N[C@@H](CCCNC(=N)N)C(=O)N[C@@H](CCC(N)=O)C(=O)N[C@@H](CCCNC(=N)N)C(=O)N[C@@H](CCCCN)C(=O)N[C@@H](CCC(=O)O)C(=O)N[C@@H](CCCNC(=N)N)C(=O)N[C@@H](CCC(=O)O)C(=O)N[C@@H](CCC(N)=O)C(=O)N[C@@H](C)C(=O)N[C@@H](CCC(=O)O)C(=O)N[C@@H](CCCCN)C(=O)N[C@@H](CC(N)=O)C(=O)N[C@H](C(=O)N[C@@H](CCCNC(=N)N)C(=O)N[C@H](C(=O)N[C@@H](CC(C)C)C(=O)N[C@@H](CCC(=O)O)C(=O)N[C@@H](CCCNC(=N)N)C(=O)N[C@H](C(N)=O)C(C)C)[C@@H](C)CC)[C@@H](C)O)C(=O)O` [compound 33] (H-IVLSLD[dV]PTKLK([γGlu-Palmitoyl])QKLLKQERQRKEREQAEKNTRILERV-NH2): the half-maximal effective concentration (EC50) on human CRF2α receptor turned out to be 0.2 nM.

B1: SEQ ID NO: 83 (peptide)
peptide: IVLSLD[dV]PIGLK([AEEA-AEEA-γGlu-C18 diacid])QILLKQERQKK[Aib]REQAETNKRILERV-NH2
modifications: N-terminus assumed
SMILES: CC[C@H](C)[C@H](N)C(=O)N[C@H](C(=O)N[C@@H](CC(C)C)C(=O)N[C@@H](CO)C(=O)N[C@@H](CC(C)C)C(=O)N[C@@H](CC(=O)O)C(=O)N[C@@H](C(=O)N1CCC[C@H]1C(=O)N[C@H](C(=O)NCC(=O)N[C@@H](CC(C)C)C(=O)N[C@@H](CCCCNC(=O)COCCOCCNC(=O)COCCOCCNC(=O)CC[C@H](NC(=O)CCCCCCCCCCCCCCCCC(=O)O)C(=O)O)C(=O)N[C@@H](CCC(N)=O)C(=O)N[C@H](C(=O)N[C@@H](CC(C)C)C(=O)N[C@@H](CC(C)C)C(=O)N[C@@H](CCCCN)C(=O)N[C@@H](CCC(N)=O)C(=O)N[C@@H](CCC(=O)O)C(=O)N[C@@H](CCCNC(=N)N)C(=O)N[C@@H](CCC(N)=O)C(=O)N[C@@H](CCCCN)C(=O)N[C@@H](CCCCN)C(=O)NC(C)(C)C(=O)N[C@@H](CCCNC(=N)N)C(=O)N[C@@H](CCC(=O)O)C(=O)N[C@@H](CCC(N)=O)C(=O)N[C@@H](C)C(=O)N[C@@H](CCC(=O)O)C(=O)N[C@H](C(=O)N[C@@H](CC(N)=O)C(=O)N[C@@H](CCCCN)C(=O)N[C@@H](CCCNC(=N)N)C(=O)N[C@H](C(=O)N[C@@H](CC(C)C)C(=O)N[C@@H](CCC(=O)O)C(=O)N[C@@H](CCCNC(=N)N)C(=O)N[C@H](C(N)=O)C(C)C)[C@@H](C)CC)[C@@H](C)O)[C@@H](C)CC)[C@@H](C)CC)C(C)C)C(C)C
In test [1], B1 had an EC50 [nM], 0% HSA of 0.07 nM and an EC50 [nM], 0.1% HSA of 2.99 nM.

B2: SEQ ID NO: 84 (peptide)
peptide: IVLSLDVPIKLK([AEEA-AEEA-γGlu-C18 diacid])QKLLEQEKQKKQREQAETNKQILAQV-NH2
modifications: N-terminus assumed
SMILES: CC[C@H](C)[C@H](N)C(=O)N[C@H](C(=O)N[C@@H](CC(C)C)C(=O)N[C@@H](CO)C(=O)N[C@@H](CC(C)C)C(=O)N[C@@H](CC(=O)O)C(=O)N[C@H](C(=O)N1CCC[C@H]1C(=O)N[C@H](C(=O)N[C@@H](CCCCN)C(=O)N[C@@H](CC(C)C)C(=O)N[C@@H](CCCCNC(=O)COCCOCCNC(=O)COCCOCCNC(=O)CC[C@H](NC(=O)CCCCCCCCCCCCCCCCC(=O)O)C(=O)O)C(=O)N[C@@H](CCC(N)=O)C(=O)N[C@@H](CCCCN)C(=O)N[C@@H](CC(C)C)C(=O)N[C@@H](CC(C)C)C(=O)N[C@@H](CCC(=O)O)C(=O)N[C@@H](CCC(N)=O)C(=O)N[C@@H](CCC(=O)O)C(=O)N[C@@H](CCCCN)C(=O)N[C@@H](CCC(N)=O)C(=O)N[C@@H](CCCCN)C(=O)N[C@@H](CCCCN)C(=O)N[C@@H](CCC(N)=O)C(=O)N[C@@H](CCCNC(=N)N)C(=O)N[C@@H](CCC(=O)O)C(=O)N[C@@H](CCC(N)=O)C(=O)N[C@@H](C)C(=O)N[C@@H](CCC(=O)O)C(=O)N[C@H](C(=O)N[C@@H](CC(N)=O)C(=O)N[C@@H](CCCCN)C(=O)N[C@@H](CCC(N)=O)C(=O)N[C@H](C(=O)N[C@@H](CC(C)C)C(=O)N[C@@H](C)C(=O)N[C@@H](CCC(N)=O)C(=O)N[C@H](C(N)=O)C(C)C)[C@@H](C)CC)[C@@H](C)O)[C@@H](C)CC)C(C)C)C(C)C
On to B2, for which, in test [1], the EC50 [nM], 0% HSA came out at 1.85 nM and the EC50 [nM], 0.1% HSA amounted to 61.7 nM.
